Assay [1] addresses recombinant human DLL3 (ELISA coat) (human) (UniProt Q9NYJ7). In words: ELISA on coated recombinant human DLL3, anti-mouse IgG-HRP. On the technique in general: An ELISA detects its analyte on a solid surface through an enzyme-linked reagent.
Assay [2] has as its target T1, DLL3 on RPMI-8226 cells transduced to express the full-length extracellular portion of DLL3 (UniProt Q9NYJ7 27-492, limits assumed).
T1 construct: extracellular domain; also called DLL3+ RPMI-8226 cells; cell surface DLL3
T1 sequence (looked up): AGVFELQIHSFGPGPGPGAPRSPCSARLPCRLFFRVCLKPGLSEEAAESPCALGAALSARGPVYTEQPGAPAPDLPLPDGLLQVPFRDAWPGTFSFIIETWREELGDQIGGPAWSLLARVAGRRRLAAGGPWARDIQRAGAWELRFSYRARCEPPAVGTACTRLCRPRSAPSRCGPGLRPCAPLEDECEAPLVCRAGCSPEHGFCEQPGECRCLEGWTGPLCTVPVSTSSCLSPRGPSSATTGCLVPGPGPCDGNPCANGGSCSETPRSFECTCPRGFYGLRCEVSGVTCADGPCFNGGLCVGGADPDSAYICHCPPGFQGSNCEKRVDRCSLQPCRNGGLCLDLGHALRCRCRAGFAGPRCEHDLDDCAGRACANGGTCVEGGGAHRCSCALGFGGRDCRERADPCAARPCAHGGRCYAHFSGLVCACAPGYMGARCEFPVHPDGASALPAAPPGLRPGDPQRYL
In words: flow cytometry on RPMI-8226 cells transduced to express DLL3, fluorophore-conjugated anti-human IgG secondary, MFI. On the procedure:
To assess the binding of the mAbs to DLL3 positive cells, human myeloma cell line RPMI-8226 was transduced to express the full-length extracellular portion of DLL3. Anti-DLL3 mAbs were diluted and incubated with DLL3⁺ RPMI-8226 cells. The cells were analyzed by flow cytometry and binding of a mAb was detected using a fluorophore conjugated anti-human IgG secondary antibody.
(In general: In flow cytometry, cells or beads pass a laser one at a time.)

In assay [3] the target is T2, human DLL3-His (human, UniProt Q9NYJ7 27-492, limits assumed).
T2 construct: also called hDLL3
T2 sequence (looked up): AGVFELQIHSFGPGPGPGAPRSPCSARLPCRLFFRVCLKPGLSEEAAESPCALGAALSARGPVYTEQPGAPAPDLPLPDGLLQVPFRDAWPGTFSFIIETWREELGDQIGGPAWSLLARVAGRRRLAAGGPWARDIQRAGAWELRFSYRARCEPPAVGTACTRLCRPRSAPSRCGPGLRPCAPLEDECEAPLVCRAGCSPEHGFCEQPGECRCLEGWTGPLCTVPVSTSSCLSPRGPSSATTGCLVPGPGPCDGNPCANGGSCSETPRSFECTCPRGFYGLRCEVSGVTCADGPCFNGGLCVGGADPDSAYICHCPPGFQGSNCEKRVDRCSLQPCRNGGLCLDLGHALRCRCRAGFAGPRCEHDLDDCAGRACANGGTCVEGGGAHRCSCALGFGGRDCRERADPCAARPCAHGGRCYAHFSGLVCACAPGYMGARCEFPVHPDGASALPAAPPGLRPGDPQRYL
In words: SPR (Biacore 8K), 37 C, antibody captured on anti-human Fc, human DLL3-His injected, 1:1 fit. An excerpt: (§1) The kinetics of binding of different humanized variants and parental murine 5E7 antibody to human DLL3-His was studied by Surface Plasmon Resonance using a Biacore 8K instrument. Briefly, anti-hFc and anti-mFc IgG proteins were covalently immobilized onto different channels of CM5 chip to allow simultaneous analysis of human and murine antibodies. m5E7 was captured on the anti-mouse Fc channel and humanized variants were captured on the anti-human Fc channel at a desired capture level of ˜56 RU in HBS-EP+ buffer supplemented with 0.1% BSA. Three buffer blanks and human DLL3-His (analyte) at concentrations 0.411-300 nM (in three fold dilutions) were injected over the surface with captured murine or humanized 5E7 for 300 second association time and let dissociate for 600 second at a flow rate of 30 μL/min. The surfaces were subjected to regeneration with three 20-second pulses of 10 mM glycine pH 1.70 at a flow rate of 100 μL/min between every concentration of analyte. The experiment was conducted at 37° C. Data were double referenced and a 1:1 fit model was applied to the sensorgrams in the Biacore Insight Evaluation software.
(§2) The kinetic parameters of human DLL3-His binding to murine and humanized variants of 5E7 antibody variants were calculated and shown in Table 12.

Assay [4] has as its target T2, human DLL3-His. In words: SPR (Biacore 8K), 37 C, antibody captured on anti-mouse Fc, human DLL3-His injected, 1:1 fit.
Text: as §1, §2

The target in assay [5] is T3, recombinant human DLL4 (human, UniProt Q9NR61 27-524, limits assumed).
T3 construct: Coated on plates at 0.5 µg/ml
In words: ELISA, plate coated with recombinant human DLL4 at 0.5 ug/ml, anti-mouse IgG-HRP/TMB, signal as % of positive control max. The method, then: To investigate the binding of anti-DLL3 antibodies to human DLL3, wells of high binding flat-bottom plates were coated with recombinant human DLL3 diluted to 0.5 μg/ml. To assess cross-reactivity of the antibodies to DLL1/DLL4, which are closely related family members to DLL3, plates were coated with recombinant human DLL1 diluted to 1 μg/ml, or human DLL4 diluted to 0.5 μg/ml. […] Binding was detected using anti-mouse IgG-HRP and 3,3′,5,5′-Tetramethylbenzidine (TMB) substrate. Signals were normalized to the corresponding positive control antibody.

T3 sequence (Q9NR61 27-524 limits assumed): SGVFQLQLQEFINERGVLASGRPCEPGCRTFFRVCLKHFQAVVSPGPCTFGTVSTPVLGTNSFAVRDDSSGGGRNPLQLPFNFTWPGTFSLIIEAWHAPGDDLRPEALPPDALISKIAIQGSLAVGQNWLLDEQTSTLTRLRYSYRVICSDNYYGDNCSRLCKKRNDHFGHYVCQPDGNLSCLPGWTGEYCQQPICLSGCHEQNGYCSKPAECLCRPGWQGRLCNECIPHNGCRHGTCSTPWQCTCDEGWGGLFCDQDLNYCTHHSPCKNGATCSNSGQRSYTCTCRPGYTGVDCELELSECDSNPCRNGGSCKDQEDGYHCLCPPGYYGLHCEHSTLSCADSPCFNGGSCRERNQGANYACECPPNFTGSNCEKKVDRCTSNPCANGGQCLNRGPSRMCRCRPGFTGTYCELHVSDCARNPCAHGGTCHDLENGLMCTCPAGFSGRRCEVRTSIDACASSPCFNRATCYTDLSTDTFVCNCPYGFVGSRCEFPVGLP

Broadly, the EC50 is the concentration at which the effect is half-maximal. As to “positive control antibody for DLL3 (R&D Systems-MAB4315)”, the EC50 in assay [1] came to 0.1 nM.

B1: humanized anti-DLL3 antibody h5E7 (antibody, V domains shown)
VH: QVQLVQSGAEVKKPGASVKVSCKASGFNIKDDYIHWVRQAPGQGLEWMGWIDSENGDTEYASKFQGRVTITADTSANTAYMELSSLRSEDTAVYYCATSSYYSYDLFVYWGQGTLVTVSS
VL: DVQMTQSPSSLSASVGDRVTITCKSSQSLLHSNGKTYLNWLQQKPGQAPKLLLYLVSKLESGVPSRFSGSGSGTDYTLTISSLQPEDFATYYCLQTTHLYTFGQGTKLEIK
notes: also called clone h5E7
As a reminder, the EC50 (read off the curve) is the concentration that produces a half-maximal response. By Kd is commonly meant the free concentration of one partner at which half of the binding sites on the other are occupied at equilibrium, for simple one-to-one binding. A low value points to tighter binding. For the molecule B1, the “EC50 (read off the curve)” value in assay [2] is approximately 6 nM. This molecule came in with a Kd in assay [3] of 8.7 nM.

B2: humanized anti-DLL3 antibody h5E7-YD-C6 (antibody, V domains shown)
VH: QVQLVQSGAEVKKPGASVKVSCKASGFNIKDDYIHWVRQAPGQGLEWMGWIDSENGDTEYASKFQGRVTITADTSANTAYMELSSLRSEDTAVYYCATSEYYSYDLFVYWGQGTLVTVSS
VL: DVQMTQSPSSLSASVGDRVTITCKSSQSLLHSNGKTYLNWLQQKPGQAPKLLLYLVSKLESGVPSRFSGSGSGTDYTLTISSLQPEDFATYYCLQTTHLYTFGQGTKLEIK
notes: also called C6 variant
In the case of B2, the Kd in assay [3] was 3.3 nM.

B3: humanized anti-DLL3 antibody h5E7-YD-F3 (antibody, V domains shown)
VH: QVQLVQSGAEVKKPGASVKVSCKASGFNIKDDYIHWVRQAPGQGLEWMGWIDSENGDTEYASKFQGRVTITADTSANTAYMELSSLRSEDTAVYYCATSSYWSYDLLVYWGQGTLVTVSS
VL: DVQMTQSPSSLSASVGDRVTITCKSSQSLLHSNGKTYLNWLQQKPGQAPKLLLYLVSKLESGVPSRFSGSGSGTDYTLTISSLQPEDFATYYCLQTTHLYTFGQGTKLEIK
notes: also called F3 variant
In assay [3], B3 showed a Kd of 1.2 nM.

B4: murine anti-DLL3 antibody clone 5E7 (antibody, V domains shown)
VH: EVQLQQSGAELVRPGASVKLSCTASGFNIKDDYIHWVKQWPEQGLEWIGWIDSENGDTEYASKFQGKATMTADTSSNTAYLQLSGLTSEDTAVYYCTTSSYYSYDLFVYWGQGTLVTVSA
VL: DVLMTQTPLTLSVPIGQPASISCKSSQSLLHSNGKTYLNWLLQRPGQSPKLLIYLVSKLESGVPDRFSGSGSGTDFTLKISRVEAEDLGVYYCLQTTHLYTFGGGTKLEIK
notes: Mouse hybridoma antibody, captured by anti-mouse Fc; also called m5E7; murine 5E7
Regarding B4, the Kd in assay [4] was 1.2 nM. Further, the binding result in assay [5] is given as “binds”.
